Patent publication US8318206

Assays:
[1] = biological target: T1, Fmoc-Gly-Phe-Cys-NH2 (peptide 1)
T1 chain: GFC

[2] = biological target: T2, Fmoc-Gly-d-Phe-d-Cys (peptide 2) (not fully specified)
T2 chain: GFC

B1: thermolysin from B. thermoproteolyticus Rokko (protein)
chain: ITGTSTVGVGRGVLGDQKNINTTYSTYYYLQDNTRGNGIFTYDAKYRTTLPGSLWADADNQFFASYDAPAVDAHYYAGVTYDYYKNVHNRLSYDGNNAAIRSSVHYSQGYNNAFWNGSQMVYGDGDGQTFIPLSGGIDVVAHELTHAVTDYTAGLIYQNESGAINEAISDIFGTLVEFYANKNPDWEIGEDVYTPGISGDSLRSMSDPAKYGDPDHYSKRYTGTQDNGGVHINSGIINKAAYLISQGGTHYGVSVVGIGRDKLGKIFYRALTQYLTPTSNFSQLRAAAVQSATDLYGSTSQEVASVKQAFDAVGVK
HPLC of the supernatant after thermolysin treatment (cleaved fragment) [1]: HPLC of the supernatant detected the presence of Fmoc-Gly only | shift in the plasmon resonance peak (UV-visible spectra), 6 h after addition of 7.2 nM thermolysin [1]: a clear shift in the plasmon resonance peak from 565 nm to 532 nm 6 h after addition of 7.2 nM thermolysin | Δ ratio A/D over a period of 47 h, 7.2 nM thermolysin [1]: The Δ ratio A/D increases over a period of 47 h for 7.2 nM and 2.08 zM, to 96.5% and 25.2% respectively | Δ ratio A/D over a period of 47 h, 2.08 zM thermolysin [1]: The Δ ratio A/D increases over a period of 47 h for 7.2 nM and 2.08 zM, to 96.5% and 25.2% respectively | dispersion of nanoparticle aggregate [2]: nanoparticles functionalised with Fmoc-Gly-d-Phe-d-Cys did not disperse upon introduction of thermolysin
